From patent US20200048693

Test system: dsDNase (shrimp double strand-specific DNase)
Experiment: cleavage_in_vitro
Details: DNA strand of hybrid cleaved, RNA strand almost not; First-Strand buffer, 37 C

## CGCCATCGGAGGTTC / GAACCUCCGAUGGCG [RNA-DNA hybrid dual probe]
  relative cleavage activity (fraction of dsDNA activity): 0.5
